Data from patent US20150266963A1 (ARGEN X B V, published 2015).

T1: CD27 (UniProt P26842 21-192, limits assumed)
T1 sequence (looked up): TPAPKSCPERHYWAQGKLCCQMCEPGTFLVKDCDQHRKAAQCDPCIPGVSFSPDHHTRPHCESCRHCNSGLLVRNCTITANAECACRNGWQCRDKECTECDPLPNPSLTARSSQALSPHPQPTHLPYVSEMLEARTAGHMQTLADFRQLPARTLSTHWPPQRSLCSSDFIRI

T2: human-mouse CD70 chimera chim-2 (Flag-TNC-CD70)
T2 construct: also called chimera 2
T2 chain: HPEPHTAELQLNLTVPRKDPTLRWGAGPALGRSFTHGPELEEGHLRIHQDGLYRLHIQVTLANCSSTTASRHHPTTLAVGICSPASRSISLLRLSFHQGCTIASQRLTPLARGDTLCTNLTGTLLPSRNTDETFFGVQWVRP

T3: human-mouse CD70 chimera chim-2.4 (Flag-TNC-CD70)
T3 construct: also called chimera 2.4
T3 chain: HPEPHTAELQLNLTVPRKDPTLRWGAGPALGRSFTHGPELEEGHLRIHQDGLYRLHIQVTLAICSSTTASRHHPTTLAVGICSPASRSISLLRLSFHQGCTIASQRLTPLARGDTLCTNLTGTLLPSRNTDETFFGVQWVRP

T4: human-mouse CD70 chimera chim-4 (Flag-TNC-CD70) (Mus musculus (Mouse), UniProt O55237 54-192)
T4 construct: also called chimera 4
T4 chain: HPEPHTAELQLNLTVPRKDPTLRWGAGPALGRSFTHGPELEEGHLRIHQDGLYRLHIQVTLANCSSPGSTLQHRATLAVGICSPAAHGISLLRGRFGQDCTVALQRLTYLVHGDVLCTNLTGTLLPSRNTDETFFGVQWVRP

T5: human-mouse CD70 chimera chim-1 (Flag-TNC-CD70) (Homo sapiens (Human), UniProt P32970 58-193, Soluble homotrimer held by the TNC domain; one CD70 ECD chain is given.)
T5 construct: also called chimera 1; not shown: N-terminal Flag tag, TNC (tenascin-C) trimerisation domain and any linkers of the Flag-TNC-CD70 construct
T5 chain: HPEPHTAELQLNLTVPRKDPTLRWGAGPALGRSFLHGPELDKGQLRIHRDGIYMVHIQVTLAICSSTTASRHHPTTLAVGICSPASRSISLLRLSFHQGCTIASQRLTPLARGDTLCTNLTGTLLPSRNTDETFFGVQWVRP

T6: human-mouse CD70 chimera chim-3 (Flag-TNC-CD70)
T6 construct: also called chimera 3
T6 chain: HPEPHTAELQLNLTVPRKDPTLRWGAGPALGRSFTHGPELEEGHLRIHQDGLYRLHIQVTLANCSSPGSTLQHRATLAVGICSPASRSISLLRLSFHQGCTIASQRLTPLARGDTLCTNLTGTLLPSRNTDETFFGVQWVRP

T7: human-mouse CD70 chimera chim-2.2 (Flag-TNC-CD70)
T7 construct: also called chimera 2.2; not shown: N-terminal Flag tag, TNC trimerisation domain and any linkers of the Flag-TNC-CD70 construct
T7 chain: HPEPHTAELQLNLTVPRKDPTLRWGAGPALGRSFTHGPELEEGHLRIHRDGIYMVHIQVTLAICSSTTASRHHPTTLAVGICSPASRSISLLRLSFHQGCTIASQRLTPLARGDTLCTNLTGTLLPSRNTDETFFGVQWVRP

T8: human-mouse CD70 chimera chim-2.1 (Flag-TNC-CD70) (Soluble homotrimer held by the TNC domain; one CD70 ECD chain is given.)
T8 construct: also called chimera 2.1; not shown: N-terminal Flag tag, TNC (tenascin-C) trimerisation domain and any linkers of the Flag-TNC-CD70 construct
T8 chain: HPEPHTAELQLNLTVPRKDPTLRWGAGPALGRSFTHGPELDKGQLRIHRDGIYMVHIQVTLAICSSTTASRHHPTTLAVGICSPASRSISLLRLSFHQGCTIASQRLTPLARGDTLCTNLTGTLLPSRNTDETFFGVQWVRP

T9: mouse Flag-TNC-CD70 (mouse, UniProt O55237 45-195)
T9 construct: extracellular domain; also called mouse CD70; not shown: Flag tag and TNC trimerisation domain
T9 sequence (looked up): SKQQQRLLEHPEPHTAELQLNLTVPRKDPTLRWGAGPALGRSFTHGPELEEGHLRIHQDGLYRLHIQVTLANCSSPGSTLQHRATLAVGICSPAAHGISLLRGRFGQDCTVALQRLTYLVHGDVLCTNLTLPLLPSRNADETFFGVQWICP

B1: recombinant human CD70 (Flag-TNC-CD70) (ligand, UniProt P32970 39-193, looked up)
chain: QRFAQAQQQLPLESLGWDVAELQLNHTGPQQDPRLYWQGGPALGRSFLHGPELDKGQLRIHRDGIYMVHIQVTLAICSSTTASRHHPTTLAVGICSPASRSISLLRLSFHQGCTIASQRLTPLARGDTLCTNLTGTLLPSRNTDETFFGVQWVRP
notes: extracellular domain; Captured by anti-Flag mAb in ELISA; as 'recombinant human CD70' immobilised on Biacore CM5 chips; TNC is for trimerisation; also called recombinant CD70; human recombinant CD70; not shown: Flag tag and TNC trimerisation domain
B2: recombinant human CD27 Fc chimera (CD27-Fc) (Fc fusion, UniProt P26842 21-192, looked up)
chain: TPAPKSCPERHYWAQGKLCCQMCEPGTFLVKDCDQHRKAAQCDPCIPGVSFSPDHHTRPHCESCRHCNSGLLVRNCTITANAECACRNGWQCRDKECTECDPLPNPSLTARSSQALSPHPQPTHLPYVSEMLEARTAGHMQTLADFRQLPARTLSTHWPPQRSLCSSDFIRI
notes: Bought reagent; also called recombinant CD27-Fc; Fc part of the bought chimera not given

Tests used:
[1] = biological target: B2; assay: Biacore off-rate analysis, CD27 passed over coated CD70
Method: (§1) Off-rates of the purified llama-derived anti-CD70 blocking Fabs were determined using the Biacore. Recombinant human CD70 was immobilized on a CM5 Biacore chip. The immobilization was performed in accordance with a method provided by Biacore and by using the NHS/EDC kit (Biacore AB): after activation of the chip, a solution of 50 μg/ml of recombinant CD70 in 10 mM acetate buffer with pH of 5 was prepared and 1 μl of this solution (50ng) was injected resulting in a surface density of approximately 1000 RU.
(§2) Fabs for the CD70 mAbs ARGX-110, MDX2H5 and SGN70 were prepared by […] digestion (SGN70 and MDX69A7 are described elsewhere herein, MDX2H5, also referred to as MDX1411, is described in WO2008/074004 FIGS. 1A and 1B). Fabs, at a concentration of approximately 100-400 μg/ml, were diluted 6-fold in hepes-buffered saline (0.1M Hepes, 1.5M NaCl, 30 mM EDTA, 0.5% v/v surfactant P20). They were injected (30 μl) and passed through the flow cells at a flow rate of 30 μl/min. After binding of the Fab to CD70, the off-rate was monitored for a period of 10 minutes. After the dissociation, the flow cell surfaces were regenerated by injecting 5 μl of 10 mM NaOH. Sometimes multiple injections of NaOH were needed to regenerate the surfaces depending on the affinity of the Fabs. […] Moreover, the off-rate of CD27 for CD70 was determined as well.

CD27 = biological target: T1, CD27; assay: Biacore; recombinant human CD70 on CM5 chip; CD27 injected
Method: as §1, §2

[2] = biological target: T2, human-mouse CD70 chimera chim-2 …; assay: ELISA; chimera captured by anti-Flag mAb; anti-human-Fc-HRP
Method: (§3) A Maxisorb (Nunc) microtiter plate was coated with 3.5 μg/ml mouse M2 anti-Flag mAb (Sigma Aldrich, F3165) and the different chimeras were captured. A dilution series of the CD70 mAbs to be tested was applied starting at a concentration of 10 μg/ml and making 3-fold dilutions. After 2 hours, binding was detected using anti-human-Fc-HRP at a 16000-fold dilution. Staining was done with ABTS and OD at 405 nm was measured. As a positive control, CD27-Fc was applied which is able to bind to both human and mouse CD70 with good affinity as well as to the chimeric human-mouse CD70 variants.

[3] = biological target: T3, human-mouse CD70 chimera chim-2.4 …; assay: as above
Method: as §3

[4] = biological target: T4, human-mouse CD70 chimera chim-4 …; assay: as above
Method: as §3

[5] = biological target: T5, human-mouse CD70 chimera chim-1 …; assay: as above
Method: as §3

[6] = biological target: T6, human-mouse CD70 chimera chim-3 …; assay: as above
Method: as §3

[7] = biological target: T7, human-mouse CD70 chimera chim-2.2 …; assay: as above
Method: as §3

[8] = biological target: T8, human-mouse CD70 chimera chim-2.1 …; assay: as above
Method: as §3

mouse Flag-TNC-CD70 = biological target: T9, mouse Flag-TNC-CD70; assay: ELISA; mouse Flag-TNC-CD70 captured by anti-Flag mAb; anti-human-Fc-HRP
Method: as §3

[9] = biological target: B1; assay: ELISA; Flag-TNC-CD70 captured by anti-Flag mAb; anti-human-Fc-HRP
Method: as §3

koff [1] [s⁻¹]	koff (CD27) [s⁻¹]	EC50 [2] [µg/mL]	EC50 [3] [µg/mL]	EC50 [4] [µg/mL]	EC50 [5] [µg/mL]	EC50 [6] [µg/mL]	EC50 [7] [µg/mL]	EC50 [8] [µg/mL]	EC50 (mouse Flag-TNC-CD70) [µg/mL]	EC50 [9] [µg/mL]	Binder
8e-05	8e-05										B1
		0.099	0.076	0.051	0.159	0.094	0.056	0.051	0.041	0.079	B2
